Where a chain is given by its changes, count along the chain named. In names and notes the source's numbering stands.
T1: cynoFcγRIIb (Macaca fascicularis, UniProt A0A140HDP4)
T1 construct: extracellular region, C-terminal His- and GST-tag; also called cynomolgus monkey FcγRIIb
T1 sequence (receptor extracellular region): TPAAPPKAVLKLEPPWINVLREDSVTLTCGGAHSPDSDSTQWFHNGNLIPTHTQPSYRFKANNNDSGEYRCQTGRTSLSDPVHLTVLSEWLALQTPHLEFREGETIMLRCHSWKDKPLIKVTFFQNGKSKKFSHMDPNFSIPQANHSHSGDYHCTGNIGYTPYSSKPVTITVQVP

T2: mFcγRIIb (Mus musculus, UniProt P08101)
T2 construct: extracellular region, C-terminal His- and GST-tag; also called mouse FcγRII
T2 sequence (receptor extracellular region, looked up): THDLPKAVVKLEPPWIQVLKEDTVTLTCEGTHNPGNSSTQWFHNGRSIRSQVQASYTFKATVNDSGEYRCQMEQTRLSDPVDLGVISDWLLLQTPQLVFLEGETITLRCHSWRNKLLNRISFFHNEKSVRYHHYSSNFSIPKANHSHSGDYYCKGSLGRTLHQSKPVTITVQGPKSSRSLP

T3: human FcγRIIb receptor protein (R&D Systems) (human, UniProt P31994 46-217)
T3 construct: Bought protein injected over captured antibody in Biacore; also called CD32b
T3 sequence (looked up): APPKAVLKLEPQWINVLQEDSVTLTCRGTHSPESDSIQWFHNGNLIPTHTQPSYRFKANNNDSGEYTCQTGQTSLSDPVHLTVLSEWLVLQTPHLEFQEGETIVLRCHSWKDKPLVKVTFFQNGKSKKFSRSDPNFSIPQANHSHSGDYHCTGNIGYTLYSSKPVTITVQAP

T4: human FcγRIIa (131H), His- and GST-tagged (human, UniProt P12318 34-217)
T4 construct: also called H131 FcγRIIa; HIIa; not shown: 6xHis and GST tags of the pTT5 vector
T4 sequence (looked up): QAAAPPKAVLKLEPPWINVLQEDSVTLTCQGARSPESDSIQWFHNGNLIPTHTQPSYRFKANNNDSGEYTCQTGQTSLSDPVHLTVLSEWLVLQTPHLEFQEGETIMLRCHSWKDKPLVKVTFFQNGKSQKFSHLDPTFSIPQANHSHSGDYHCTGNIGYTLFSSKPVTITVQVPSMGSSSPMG

T5: human FcγRIIa (131R), His- and GST-tagged (human, UniProt P12318 34-217)
T5 construct: Expressed in HEK293T cells, purified by nickel chromatography; also called R131 FcγRIIa; not shown: 6xHis and GST tags of the pTT5 vector
T5 sequence (looked up): T4 sequence (looked up) with H134R

B1: L234W/S239E/S267E (antibody, human IgG1, kappa)
heavy: EVQLVESGGGLVKPGGSLKLSCAASGYTFTSYVMHWVRQAPGKGLEWIGYINPYNDGTKYNEKFQGRVTISSDKSISTAYMELSSLRSEDTAMYYCARGTYYYGTRVFDYWGQGTLVTVSSASTKGPSVFPLAPSSKSTSGGTAALGCLVKDYFPEPVTVSWNSGALTSGVHTFPAVLQSSGLYSLSSVVTVPSSSLGTQTYICNVNHKPSNTKVDKKVEPKSCDKTHTCPPCPAPEWLGGPEVFLFPPKPKDTLMISRTPEVTCVVVDVEHEDPEVKFNWYVDGVEVHNAKTKPREEQYNSTYRVVSVLTVLHQDWLNGKEYKCKVSNKALPAPIEKTISKAKGQPREPQVYTLPPSREEMTKNQVSLTCLVKGFYPSDIAVEWESNGQPENNYKTTPPVLDSDGSFFLYSKLTVDKSRWQQGNVFSCSVMHEALHNHYTQKSLSLSPGK
light: DIVMTQSPATLSLSPGERATLSCRSSKSLQNVNGNTYLYWFQQKPGQSPQLLIYRMSNLNSGVPDRFSGSGSGTEFTLTISSLEPEDFAVYYCMQHLEYPITFGAGTKLEIKRTVAAPSVFIFPPSDEQLKSGTASVVCLLNNFYPREAKVQWKVDNALQSGNSQESVTEQDSKDSTYSLSSTLTLSKADYEKHKVYACEVTHQGLSSPVTKSFNRGEC
notes: HuAM4G7 anti-CD19 IgG1 (m1) with these Fc substitutions, EU index; copies: 2 + 2
B2: H268D/L328Y (antibody, human IgG1, kappa)
heavy: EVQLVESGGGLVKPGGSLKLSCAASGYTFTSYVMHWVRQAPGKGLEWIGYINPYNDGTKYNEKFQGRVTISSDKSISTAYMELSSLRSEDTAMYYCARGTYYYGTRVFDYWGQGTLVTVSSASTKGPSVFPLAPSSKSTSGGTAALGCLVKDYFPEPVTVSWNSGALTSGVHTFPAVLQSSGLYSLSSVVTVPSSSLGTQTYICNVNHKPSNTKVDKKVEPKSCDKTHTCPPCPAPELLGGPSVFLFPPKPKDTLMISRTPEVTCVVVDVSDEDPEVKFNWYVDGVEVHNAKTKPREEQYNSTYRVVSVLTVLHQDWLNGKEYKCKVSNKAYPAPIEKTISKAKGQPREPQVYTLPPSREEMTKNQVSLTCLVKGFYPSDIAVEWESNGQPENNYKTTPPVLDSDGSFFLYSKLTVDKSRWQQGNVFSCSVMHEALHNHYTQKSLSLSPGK
light: B1 light
notes: as for B1
B3: S239D/L328Y (antibody, human IgG1, kappa)
heavy: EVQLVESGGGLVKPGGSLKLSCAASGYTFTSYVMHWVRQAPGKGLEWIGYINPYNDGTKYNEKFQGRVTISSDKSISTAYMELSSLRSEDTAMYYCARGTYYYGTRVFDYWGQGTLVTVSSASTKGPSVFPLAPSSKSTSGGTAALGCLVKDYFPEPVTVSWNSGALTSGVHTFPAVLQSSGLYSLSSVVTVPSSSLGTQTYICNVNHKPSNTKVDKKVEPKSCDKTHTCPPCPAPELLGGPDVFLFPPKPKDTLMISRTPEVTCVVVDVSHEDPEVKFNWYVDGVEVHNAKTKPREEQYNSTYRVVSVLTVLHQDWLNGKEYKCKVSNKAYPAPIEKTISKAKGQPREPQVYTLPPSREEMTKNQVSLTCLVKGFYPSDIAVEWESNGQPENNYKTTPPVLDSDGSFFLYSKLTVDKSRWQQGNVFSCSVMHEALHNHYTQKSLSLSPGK
light: B1 light
notes: as for B1
B4: S239D/K326D/L328Y (antibody, human IgG1, kappa)
heavy: B1 heavy with W238L, E243D, E271S, K330D, L332Y
light: B1 light
notes: as for B1
B5: S239D/L328F/I332E (antibody, human IgG1, kappa)
heavy: B1 heavy with W238L, E243D, E271S, L332F, I336E
light: B1 light
notes: as for B1
B6: S239D/S267E/I332E (antibody, human IgG1, kappa)
heavy: B1 heavy with W238L, E243D, I336E
light: B1 light
notes: as for B1
B7: H268D/L328W/I332E (antibody, human IgG1, kappa)
heavy: B1 heavy with W238L, E243S, E271S, H272D, L332W, I336E
light: B1 light
notes: as for B1
B8: H268D/A327D/L328Y (antibody, human IgG1, kappa)
heavy: B1 heavy with W238L, E243S, E271S, H272D, A331D, L332Y
light: B1 light
notes: as for B1
B9: S298M (antibody, human IgG1, kappa)
heavy: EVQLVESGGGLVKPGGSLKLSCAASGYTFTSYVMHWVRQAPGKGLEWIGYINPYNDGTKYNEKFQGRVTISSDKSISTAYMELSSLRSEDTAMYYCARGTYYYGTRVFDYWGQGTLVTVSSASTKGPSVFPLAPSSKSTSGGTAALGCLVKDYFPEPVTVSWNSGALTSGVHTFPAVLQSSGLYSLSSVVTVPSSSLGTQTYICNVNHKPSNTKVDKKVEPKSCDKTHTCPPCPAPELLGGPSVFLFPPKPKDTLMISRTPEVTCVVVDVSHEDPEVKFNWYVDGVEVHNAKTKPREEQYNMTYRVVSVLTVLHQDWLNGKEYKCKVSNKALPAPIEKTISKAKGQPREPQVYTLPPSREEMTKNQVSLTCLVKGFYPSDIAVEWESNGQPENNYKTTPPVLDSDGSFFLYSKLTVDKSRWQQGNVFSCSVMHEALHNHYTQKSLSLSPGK
light: B1 light
notes: HuAM4G7 anti-CD19 IgG1 (m1) with this Fc substitution, EU index; copies: 2 + 2
B10: S239D/S267A/L328Y (antibody, human IgG1, kappa)
heavy: B1 heavy with W238L, E243D, E271A, L332Y
light: B1 light
notes: as for B1
B11: S298L (antibody, human IgG1, kappa)
heavy: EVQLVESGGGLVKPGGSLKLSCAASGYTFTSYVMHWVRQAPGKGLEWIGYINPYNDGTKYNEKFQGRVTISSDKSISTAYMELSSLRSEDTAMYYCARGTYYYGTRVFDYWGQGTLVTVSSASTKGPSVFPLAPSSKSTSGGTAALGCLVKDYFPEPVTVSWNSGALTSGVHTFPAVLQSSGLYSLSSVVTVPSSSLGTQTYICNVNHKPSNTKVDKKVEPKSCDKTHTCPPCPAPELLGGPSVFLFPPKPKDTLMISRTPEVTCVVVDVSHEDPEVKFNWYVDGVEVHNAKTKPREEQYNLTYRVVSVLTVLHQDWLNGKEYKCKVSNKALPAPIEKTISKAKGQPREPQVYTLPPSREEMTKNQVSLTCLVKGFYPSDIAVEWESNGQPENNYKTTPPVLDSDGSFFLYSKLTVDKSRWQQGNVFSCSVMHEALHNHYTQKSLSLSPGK
light: B1 light
notes: as for B9
B12: L234W/H268D/L328Y (antibody, human IgG1, kappa)
heavy: B1 heavy with E243S, E271S, H272D, L332Y
light: B1 light
notes: as for B1
B13: S239D/L328Y/I332E (antibody, human IgG1, kappa)
heavy: B1 heavy with W238L, E243D, E271S, L332Y, I336E
light: B1 light
notes: as for B1
B14: G237N/S267E (antibody, human IgG1, kappa)
heavy: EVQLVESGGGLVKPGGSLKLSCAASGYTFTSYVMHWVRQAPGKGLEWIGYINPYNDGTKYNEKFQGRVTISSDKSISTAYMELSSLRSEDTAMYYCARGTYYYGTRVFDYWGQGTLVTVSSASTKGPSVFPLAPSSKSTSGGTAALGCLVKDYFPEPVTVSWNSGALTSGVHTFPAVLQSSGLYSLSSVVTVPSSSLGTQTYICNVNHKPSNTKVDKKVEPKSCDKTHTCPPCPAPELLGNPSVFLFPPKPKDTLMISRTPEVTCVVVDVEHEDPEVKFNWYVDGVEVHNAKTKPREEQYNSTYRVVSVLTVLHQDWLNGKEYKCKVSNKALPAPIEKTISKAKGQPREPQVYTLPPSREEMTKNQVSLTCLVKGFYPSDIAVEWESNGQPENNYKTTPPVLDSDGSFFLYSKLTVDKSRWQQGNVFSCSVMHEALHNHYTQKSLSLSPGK
light: B1 light
notes: as for B1
B15: L328F (antibody, human IgG1, kappa)
heavy: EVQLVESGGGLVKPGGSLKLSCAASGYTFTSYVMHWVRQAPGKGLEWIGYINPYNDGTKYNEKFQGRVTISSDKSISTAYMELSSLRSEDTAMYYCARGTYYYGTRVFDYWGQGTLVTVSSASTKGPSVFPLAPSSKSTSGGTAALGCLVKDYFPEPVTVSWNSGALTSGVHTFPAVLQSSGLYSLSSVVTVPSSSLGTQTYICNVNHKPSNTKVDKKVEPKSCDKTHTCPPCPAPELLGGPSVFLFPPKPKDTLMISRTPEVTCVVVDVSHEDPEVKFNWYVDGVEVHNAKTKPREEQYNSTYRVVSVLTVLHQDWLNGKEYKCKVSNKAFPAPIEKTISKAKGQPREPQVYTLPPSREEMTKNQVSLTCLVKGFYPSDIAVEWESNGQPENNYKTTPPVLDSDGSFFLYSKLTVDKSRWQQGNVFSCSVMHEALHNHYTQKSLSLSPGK
light: B1 light
notes: as for B9
B16: L234W (antibody, human IgG1, kappa)
heavy: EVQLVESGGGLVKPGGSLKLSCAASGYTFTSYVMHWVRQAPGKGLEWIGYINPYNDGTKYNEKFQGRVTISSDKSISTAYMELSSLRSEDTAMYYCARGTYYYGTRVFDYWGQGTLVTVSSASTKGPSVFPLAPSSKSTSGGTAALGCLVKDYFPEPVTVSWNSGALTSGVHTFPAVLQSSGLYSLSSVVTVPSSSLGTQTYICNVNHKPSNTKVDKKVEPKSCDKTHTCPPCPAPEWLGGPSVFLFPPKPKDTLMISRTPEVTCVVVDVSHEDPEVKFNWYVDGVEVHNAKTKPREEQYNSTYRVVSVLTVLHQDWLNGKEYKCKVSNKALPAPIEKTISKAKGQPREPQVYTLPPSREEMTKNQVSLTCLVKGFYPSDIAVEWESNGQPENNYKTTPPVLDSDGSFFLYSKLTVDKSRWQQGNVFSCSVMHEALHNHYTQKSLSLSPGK
light: B1 light
notes: as for B9

The binders below were run against T1, cynoFcγRIIb (assay: SPR).

Fold vs WT IgG1 (Kd) [fold]	Binder
2.25	B1
2.92	B2
2.13	B3
10.2	B4
3.09	B5
10	B6
7.46	B7
3.58	B8
2.85	B9
6.46	B10
0.04	B11
4.63	B12
5.12	B13

These binders were tested against T2, mFcγRIIb (assay: SPR).

Fold vs WT IgG1 (Kd) [fold]	Binder
0.761	B1
2.79	B2
11.5	B3
131	B4
2.09	B5
1	B6
4.26	B7
18.7	B8
0.549	B9
46.5	B10
0.208	B11
5.92	B12
1.7	B13

These binders were tested against T3, human FcγRIIb receptor protein (R&D …) (assay: SPR).

Fold vs WT IgG1 [fold]	Kd [nM]	binding result	Binder
40.5	36.2		B14
42.3	34.7		B1
1.91	767		B2
5.56	264		B3
13	113		B4
8.34	176		B5
124	11.8		B6
39.8	36.9		B7
3.49	420		B8
		no binding	B9
	541		B15
19.8	74.1		B10
		no binding	B11
5.92	248		B12
	1770		B16
7.41	198		B13

What follows are binders tested against T6, human FcγRI receptor protein (R&D Systems) (human, UniProt P12314 16-288) (assay: SPR).
T6 construct: also called soluble FcγRI; solFcγRI
T6 sequence (P12314 16-288 limits assumed): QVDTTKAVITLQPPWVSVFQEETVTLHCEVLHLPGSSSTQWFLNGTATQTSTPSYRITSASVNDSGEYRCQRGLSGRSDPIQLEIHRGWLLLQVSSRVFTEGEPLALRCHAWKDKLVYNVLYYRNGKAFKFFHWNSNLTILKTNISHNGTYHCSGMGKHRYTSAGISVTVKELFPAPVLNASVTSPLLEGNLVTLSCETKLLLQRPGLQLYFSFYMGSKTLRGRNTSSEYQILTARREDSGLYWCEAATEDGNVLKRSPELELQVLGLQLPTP

Fold vs WT IgG1 [fold]	Kd [nM]	Binder
0.101	3.25	B14
	0.452	B15
	10.5	B16

Each binder was assayed against T4, human FcγRIIa (131H), His- and … (assay: SPR).

Kd [nM]	Binder
1160	B16

The binders below were run against T5, human FcγRIIa (131R), His- and … (assay: SPR).

Fold vs WT IgG1 [fold]	Kd [nM]	Binder
61.5	14	B14
98.5	8.72	B1
	166	B15

These binders were tested against T7, human FcγRIIIa (158V), His- and GST-tagged (human, UniProt P08637 17-208) (assay: SPR).
T7 construct: also called V158 FcγRIIIa; VIIIa; not shown: 6xHis and GST tags of the pTT5 vector
T7 sequence (P08637 17-208 F176V): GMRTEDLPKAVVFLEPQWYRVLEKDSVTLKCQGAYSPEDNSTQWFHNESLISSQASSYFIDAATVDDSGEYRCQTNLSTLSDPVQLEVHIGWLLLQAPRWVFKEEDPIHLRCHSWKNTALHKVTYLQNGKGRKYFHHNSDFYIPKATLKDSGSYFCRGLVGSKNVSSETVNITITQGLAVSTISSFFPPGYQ

binding result	Kd [nM]	Binder
no binding		B14
	58400	B15
	6590	B16

From patent US20130315910A1 (Xencor, published 2013)
